How the values were obtained:
[1] = target: rhTRAIL-C3 (TRAIL G131R/N199R/K201H mutant) (human) (UniProt P50591); assay: SEC
[2] = target: DR4-Ig (death receptor 4 / TRAIL-R1, Ig fusion protein) (UniProt O00220)
[3] = target: DR4-Ig (death receptor 4 / TRAIL-R1, Ig fusion protein) (UniProt O00220); remark: listed apart in the source

UniProt O00220, sequence (O00220 24-239): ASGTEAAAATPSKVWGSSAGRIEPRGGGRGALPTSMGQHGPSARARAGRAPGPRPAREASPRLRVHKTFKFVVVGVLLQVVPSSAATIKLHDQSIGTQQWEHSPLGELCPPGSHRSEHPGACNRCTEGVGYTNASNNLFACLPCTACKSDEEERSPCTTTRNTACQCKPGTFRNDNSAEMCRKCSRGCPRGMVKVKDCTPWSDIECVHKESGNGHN

stoichiometry N [1]: 3
Substance: rhTRAIL-C3 (TRAIL G131R/N199R/K201H mutant) (from UniProt P50591 1-281) (ligand)
level of cell death in HL-60 cells (100 ng/ml, TMRE, 12 hrs) [2]: 67% | ED50 of apoptosis induction (annexin V) in DR4-responsive EM-2 cells, 24 hrs [3]: 3.78 ng/mL
